Measurements taken from paper PMC2920948, “Structural Comparison of Human Mammalian Ste20-Like Kinases” (PLoS ONE, 2010).

Target: the molecule itself
Test: AUC; sedimentation velocity; 30 µM unphosphorylated protein in 50 mM HEPES pH 7.5, 100 mM NaCl; 45,000 rpm; c(s) analysis with SEDFIT; monomer and dimer peaks

B1: MST4 kinase domain (residues 1-300), unphosphorylated (domain or fragment)
chain: not shown
notes: MST4 (mammalian Ste20-like kinase 4), human, residues 1-300 with the kinase domain, cloned from a Mammalian Gene Collection clone into pLIC-SGC1; Phosphorylation was removed with lambda-phosphatase; also called mammalian Ste20-like kinase 4; source: E. coli BL-21(DE3)-R3-pRARE2, purified (Ni-NTA, TEV cleavage, lambda-phosphatase, Superdex 200 SEC, MonoQ); not shown: His6, N-terminal, cleaved
  stoichiometry N: 2
